In patent publication US10500249B2, “Compositions and methods for preventing or treating diseases, conditions, or processes characterized by aberrant fibroblast proliferation and extracellular matrix deposition” (MOERAE MATRIX, INC., priority 2014, dated 2019):

Legend:
Assay in all cases: Kinase Profiling Assay
Format in all cases: biochemical
Conditions in all cases: 100 μM
ASK1 (h) = target: T1, ASK1 (h) (Homo sapiens, UniProt Q99683)
T1 sequence (Q99683 1-1374): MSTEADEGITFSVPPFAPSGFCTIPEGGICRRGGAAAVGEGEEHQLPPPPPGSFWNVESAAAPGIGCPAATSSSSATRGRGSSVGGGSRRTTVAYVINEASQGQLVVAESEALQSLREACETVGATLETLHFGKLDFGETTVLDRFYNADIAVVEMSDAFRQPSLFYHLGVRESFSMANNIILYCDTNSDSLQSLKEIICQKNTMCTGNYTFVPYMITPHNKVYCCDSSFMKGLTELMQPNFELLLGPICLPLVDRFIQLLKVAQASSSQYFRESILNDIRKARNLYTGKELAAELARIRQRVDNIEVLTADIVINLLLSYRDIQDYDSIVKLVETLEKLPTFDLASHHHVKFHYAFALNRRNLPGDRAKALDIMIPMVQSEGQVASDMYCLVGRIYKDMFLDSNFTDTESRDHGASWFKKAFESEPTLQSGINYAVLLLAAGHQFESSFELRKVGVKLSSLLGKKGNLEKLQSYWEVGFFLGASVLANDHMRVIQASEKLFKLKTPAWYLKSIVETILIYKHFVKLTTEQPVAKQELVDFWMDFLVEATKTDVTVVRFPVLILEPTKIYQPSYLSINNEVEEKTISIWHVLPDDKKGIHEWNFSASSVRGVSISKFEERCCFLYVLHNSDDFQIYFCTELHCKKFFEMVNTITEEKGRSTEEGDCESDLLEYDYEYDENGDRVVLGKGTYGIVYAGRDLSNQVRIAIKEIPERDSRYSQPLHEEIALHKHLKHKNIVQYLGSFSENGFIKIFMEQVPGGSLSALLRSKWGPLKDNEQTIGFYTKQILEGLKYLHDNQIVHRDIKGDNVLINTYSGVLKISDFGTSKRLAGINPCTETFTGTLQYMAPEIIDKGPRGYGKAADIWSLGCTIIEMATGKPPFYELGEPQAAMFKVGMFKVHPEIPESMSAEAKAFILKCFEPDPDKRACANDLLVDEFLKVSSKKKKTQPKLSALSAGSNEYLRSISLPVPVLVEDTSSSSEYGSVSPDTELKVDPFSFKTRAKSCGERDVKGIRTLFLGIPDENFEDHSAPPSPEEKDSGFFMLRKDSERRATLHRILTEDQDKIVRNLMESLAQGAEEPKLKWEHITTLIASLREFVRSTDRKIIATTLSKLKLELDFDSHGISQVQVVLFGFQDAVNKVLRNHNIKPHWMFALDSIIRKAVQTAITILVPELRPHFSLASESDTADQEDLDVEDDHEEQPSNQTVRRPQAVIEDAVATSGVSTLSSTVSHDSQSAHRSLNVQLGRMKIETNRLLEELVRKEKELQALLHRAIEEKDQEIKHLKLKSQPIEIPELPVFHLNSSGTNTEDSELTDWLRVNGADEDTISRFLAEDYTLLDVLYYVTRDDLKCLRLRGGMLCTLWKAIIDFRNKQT
Summary of the method: (§1)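 Activity remaining relative to an uninhibited control was determined by scintillation counting of labeled substrate bound to a negatively charged filter. Radiolabeled phosphate came from ATP; the substrate carried positive charge. Duplicate measurements, within a 266-kinase human panel.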

Flt3(D835Y) (h) = Flt3(D835Y) (h) (Homo sapiens, UniProt P36888, D835Y)
Summary of the method: as §1

JAK2 (h) = target: T2, JAK2 (h) (Homo sapiens, UniProt O60674)
T2 construct: purchased Millipore
Summary of the method: as §1

PAK4 (h) = target: T3, PAK4 (h) (Homo sapiens, UniProt O96013)
T3 construct: purchased Millipore
Summary of the method: as §1

PTK5 (h) = PTK5 (h) (Homo sapiens, UniProt P42685)
Summary of the method: as §1

PhKγ2 (h) = target: T4, PhKγ2 (h) (Homo sapiens, UniProt P15735)
T4 construct: purchased Millipore
T4 sequence (P15735 1-406): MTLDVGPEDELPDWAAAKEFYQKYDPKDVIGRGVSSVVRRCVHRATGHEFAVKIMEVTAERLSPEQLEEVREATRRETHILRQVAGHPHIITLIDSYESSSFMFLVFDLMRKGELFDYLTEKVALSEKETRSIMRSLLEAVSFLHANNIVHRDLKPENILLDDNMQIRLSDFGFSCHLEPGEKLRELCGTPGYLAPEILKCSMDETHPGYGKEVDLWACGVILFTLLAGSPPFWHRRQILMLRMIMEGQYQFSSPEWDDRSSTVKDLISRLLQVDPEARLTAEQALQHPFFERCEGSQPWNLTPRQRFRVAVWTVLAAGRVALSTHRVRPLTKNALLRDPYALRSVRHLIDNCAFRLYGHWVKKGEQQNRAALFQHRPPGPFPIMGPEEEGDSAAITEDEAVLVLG
Summary of the method: as §1

T2 sequence (O60674 whole entry): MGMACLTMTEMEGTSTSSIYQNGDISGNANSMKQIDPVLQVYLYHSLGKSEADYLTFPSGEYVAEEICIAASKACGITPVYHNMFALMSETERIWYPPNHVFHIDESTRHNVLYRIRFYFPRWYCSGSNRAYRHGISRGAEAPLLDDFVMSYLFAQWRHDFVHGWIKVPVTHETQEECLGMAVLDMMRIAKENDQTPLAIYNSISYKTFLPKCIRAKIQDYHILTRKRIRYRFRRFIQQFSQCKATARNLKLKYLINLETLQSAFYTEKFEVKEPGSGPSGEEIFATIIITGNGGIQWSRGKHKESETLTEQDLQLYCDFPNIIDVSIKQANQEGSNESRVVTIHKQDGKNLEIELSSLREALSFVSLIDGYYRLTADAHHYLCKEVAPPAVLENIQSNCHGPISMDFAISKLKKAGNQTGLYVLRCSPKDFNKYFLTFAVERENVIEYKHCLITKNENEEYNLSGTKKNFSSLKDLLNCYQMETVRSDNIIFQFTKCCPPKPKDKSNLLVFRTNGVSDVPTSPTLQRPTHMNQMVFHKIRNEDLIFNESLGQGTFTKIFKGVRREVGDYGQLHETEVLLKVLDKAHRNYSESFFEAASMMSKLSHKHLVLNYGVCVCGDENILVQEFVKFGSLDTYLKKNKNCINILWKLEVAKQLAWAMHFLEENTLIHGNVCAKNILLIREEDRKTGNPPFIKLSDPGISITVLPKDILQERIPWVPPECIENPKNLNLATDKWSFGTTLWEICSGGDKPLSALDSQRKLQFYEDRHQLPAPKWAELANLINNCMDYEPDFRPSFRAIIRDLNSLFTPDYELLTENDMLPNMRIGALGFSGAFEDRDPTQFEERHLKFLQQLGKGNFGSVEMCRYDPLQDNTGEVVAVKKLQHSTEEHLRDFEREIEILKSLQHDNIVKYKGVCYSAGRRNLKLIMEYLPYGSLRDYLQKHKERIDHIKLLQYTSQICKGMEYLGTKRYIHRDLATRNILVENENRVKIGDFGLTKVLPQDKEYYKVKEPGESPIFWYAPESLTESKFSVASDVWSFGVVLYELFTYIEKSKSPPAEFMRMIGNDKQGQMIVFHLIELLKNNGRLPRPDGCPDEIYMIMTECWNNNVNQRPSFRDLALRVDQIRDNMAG
Chain of PTK5 (h) (P42685 whole entry): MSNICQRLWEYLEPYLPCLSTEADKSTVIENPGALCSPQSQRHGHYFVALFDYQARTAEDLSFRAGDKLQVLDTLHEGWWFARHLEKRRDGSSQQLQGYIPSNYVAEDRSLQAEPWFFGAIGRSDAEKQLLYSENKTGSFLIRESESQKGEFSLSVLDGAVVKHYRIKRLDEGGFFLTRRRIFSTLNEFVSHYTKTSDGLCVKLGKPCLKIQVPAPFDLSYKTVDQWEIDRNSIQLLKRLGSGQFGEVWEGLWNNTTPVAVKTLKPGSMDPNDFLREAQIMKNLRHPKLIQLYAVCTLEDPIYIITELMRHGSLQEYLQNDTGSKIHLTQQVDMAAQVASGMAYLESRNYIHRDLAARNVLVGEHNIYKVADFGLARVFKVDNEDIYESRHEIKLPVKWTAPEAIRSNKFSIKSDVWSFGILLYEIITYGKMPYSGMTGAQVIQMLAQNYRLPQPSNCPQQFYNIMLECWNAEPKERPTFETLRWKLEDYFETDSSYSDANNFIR
T3 sequence (O96013 whole entry): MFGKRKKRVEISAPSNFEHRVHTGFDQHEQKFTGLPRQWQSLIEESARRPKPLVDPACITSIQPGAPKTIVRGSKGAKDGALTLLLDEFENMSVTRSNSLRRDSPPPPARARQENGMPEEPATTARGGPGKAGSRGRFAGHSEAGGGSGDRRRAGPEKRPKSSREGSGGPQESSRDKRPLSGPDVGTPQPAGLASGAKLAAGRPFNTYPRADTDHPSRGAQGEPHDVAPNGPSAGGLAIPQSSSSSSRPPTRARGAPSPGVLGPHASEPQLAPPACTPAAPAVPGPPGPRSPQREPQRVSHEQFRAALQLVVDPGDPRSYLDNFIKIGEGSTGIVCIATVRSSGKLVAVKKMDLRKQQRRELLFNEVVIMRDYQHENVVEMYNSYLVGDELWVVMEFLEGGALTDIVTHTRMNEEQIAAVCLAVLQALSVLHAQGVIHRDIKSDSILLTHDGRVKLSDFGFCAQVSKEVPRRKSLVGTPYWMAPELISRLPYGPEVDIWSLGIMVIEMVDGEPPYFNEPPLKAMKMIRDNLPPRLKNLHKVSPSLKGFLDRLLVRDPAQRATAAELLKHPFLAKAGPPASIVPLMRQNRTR

## FAKLAARLYRKALARQLGVAA [MMI-0300]
ASK1 (h)
  % activity: 80%
Flt3(D835Y) (h)
  % activity: 80%
JAK2 (h)
  % activity: 133%
PAK4 (h)
  % activity: 94%
PTK5 (h)
  % activity: 132%
PhKγ2 (h)
  % activity: 46%

## HRRIKAWLKKIKALARQLGVAA (Mammalian) [MMI-0500]
ASK1 (h)
  % activity: −4%
Flt3(D835Y) (h)
  % activity: 65%
JAK2 (h)
  % activity: 49%
PAK4 (h)
  % activity: 86%
PTK5 (h)
  % activity: 96%
PhKγ2 (h)
  % activity: 16%

## KAFAKLAARLYRKALARQLGVAA [MMI-0400]
ASK1 (h)
  % activity: 69%
Flt3(D835Y) (h)
  % activity: 71%
PAK4 (h)
  % activity: 89%
PTK5 (h)
  % activity: 129%
PhKγ2 (h)
  % activity: 38%

## YARAAARQARAKALNRQLGVA (Mammalian) [MMI-0200]
ASK1 (h)
  % activity: 101%
JAK2 (h)
  % activity: 131%
PAK4 (h)
  % activity: 98%
PTK5 (h)
  % activity: 108%
PhKγ2 (h)
  % activity: 86%
